Experiments:
Experiment in all cases: Western blotting
human IFNβ = human IFNβ (human, UniProt P01574 22-187)
human IFNγ = molecular target: T1, human IFNγ (human, UniProt P01579 24-166, limits assumed)
T1 sequence (looked up): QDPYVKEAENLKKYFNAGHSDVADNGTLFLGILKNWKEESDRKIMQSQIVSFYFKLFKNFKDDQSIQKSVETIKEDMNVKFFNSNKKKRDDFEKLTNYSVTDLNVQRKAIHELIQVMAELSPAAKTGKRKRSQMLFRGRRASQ

[1] = molecular target: T2, human tumor necrosis factor (human, UniProt P01375 77-233)
T2 construct: also called human TNFα; TNFα
T2 sequence (P01375 77-233 limits assumed): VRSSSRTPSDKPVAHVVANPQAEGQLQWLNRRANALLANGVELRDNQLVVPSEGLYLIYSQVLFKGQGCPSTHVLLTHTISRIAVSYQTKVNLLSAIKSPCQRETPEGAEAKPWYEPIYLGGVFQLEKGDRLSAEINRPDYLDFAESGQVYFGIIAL

[2] = molecular target: T3, recombinant human IFNα subtype α1 (human, UniProt P0DY56 24-189)
T3 construct: also called rIFNα1; IFNα1
T3 sequence (P0DY56 entry or part of it limits assumed): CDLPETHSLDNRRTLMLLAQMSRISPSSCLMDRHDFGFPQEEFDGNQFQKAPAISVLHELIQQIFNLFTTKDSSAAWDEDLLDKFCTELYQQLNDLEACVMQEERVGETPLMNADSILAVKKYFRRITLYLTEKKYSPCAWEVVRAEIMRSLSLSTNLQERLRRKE
Text: (§1) Proteins, contained in a part of the gel ranging from about 20 to about 29 kilo daltons (abbreviated as “kDa”, hereinafter) corresponding to the molecular weights of the proteins of IFNs, were transferred to a nitrocellulose membrane and soaked in “BlockAce”, a product name of a blocking solution to inhibit non-specific reaction commercialized by Dainippon Sumitomo Pharma, Co., Ltd., Tokyo, Japan. The resulting nitrocellulose membrane after the blocking treatment was soaked in a solution, containing 2 μg/ml of any of the nine monoclonal antibodies purified by using PROTEIN G SEPHAROSE, at ambient temperature for one hour, and washed with 50 mM Tris-HCl buffer (pH 7.5) containing 0.05% (v/v) tween 20 to remove excessive amounts of antibodies. The resulting nitrocellulose membrane was soaked in a solution containing an HRP labelled anti-mouse immunoglobulin or anti-rat immunoglobulin (both of which are commercialized by DakoCytomation, Denmark) at ambient temperature for one hour. The resulting membrane was washed with 50 mM Tris-HCl buffer (pH 7.5) containing 0.05% (v/v) tween 20 for 30 min and subjected to a color reaction by using commercialized “ECL western blotting detection reagent and Hyperfilm ECL”, a product name of a Western blotting detection kit commercialized by GE Healthcare Biosciences, Tokyo, Japan.

[3] = molecular target: T4, recombinant human IFNα subtype α10 (human, UniProt P01566 24-189)
T4 construct: also called rIFNα10; IFNα10
T4 sequence (P01566 24-189 limits assumed): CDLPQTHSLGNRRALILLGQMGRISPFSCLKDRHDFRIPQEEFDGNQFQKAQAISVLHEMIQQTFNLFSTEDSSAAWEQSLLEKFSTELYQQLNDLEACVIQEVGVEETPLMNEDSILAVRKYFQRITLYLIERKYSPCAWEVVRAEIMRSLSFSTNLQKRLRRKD
Text: as §1

[4] = molecular target: T5, recombinant human IFNα subtype α6 (human, UniProt P05013 24-189, limits assumed)
T5 construct: also called rIFNα6; IFNα6
T5 sequence (P05013 24-189 limits assumed): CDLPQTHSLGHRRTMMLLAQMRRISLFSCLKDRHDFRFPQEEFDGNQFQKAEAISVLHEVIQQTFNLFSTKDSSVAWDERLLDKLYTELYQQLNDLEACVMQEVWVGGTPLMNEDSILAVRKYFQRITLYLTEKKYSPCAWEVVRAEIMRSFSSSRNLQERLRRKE
Text: as §1

[5] = molecular target: T6, recombinant human IFNα subtype α5 (human, UniProt P01569 24-189, limits assumed)
T6 construct: also called rIFNα5; IFNα5
T6 sequence (P01569 24-189 limits assumed): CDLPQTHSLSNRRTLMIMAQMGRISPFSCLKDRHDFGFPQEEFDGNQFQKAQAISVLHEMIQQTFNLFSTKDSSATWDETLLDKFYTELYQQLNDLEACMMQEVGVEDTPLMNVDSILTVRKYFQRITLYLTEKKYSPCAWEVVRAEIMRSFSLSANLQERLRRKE
Text: as §1

Measured: binding result

Chain of human IFNβ (P01574 22-187 limits assumed): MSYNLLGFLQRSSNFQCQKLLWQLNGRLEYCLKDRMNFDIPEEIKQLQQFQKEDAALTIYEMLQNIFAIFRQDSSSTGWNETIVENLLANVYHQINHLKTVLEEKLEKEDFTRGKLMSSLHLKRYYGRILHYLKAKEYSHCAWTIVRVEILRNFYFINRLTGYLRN

B1: α8Y36-2 mAb (antibody, IgG1, V domains shown)
VH: EVQLVESGGGLVQPGRSLKLSCAASGFTFSKYGMAWVRQAPTKGLEWVASISTGGYNTYYRDSVKGRFTISRDNAKNTQYLQMDSLRSEDTATYYCTRPPAFDHWGQGIMVTVSS
VL: DIKMTQSPSFLSASVGDRVTINCKASQNIDKYLNWYQQKLGKAPRLLMYNTNNLQTGIPSRFSGSGSTTDFTLTISSLQPEDVATYFCSHHSVRPYTFGAGTKLELK
notes: also called mAb-IFNα8Y36-2; FERM BP-11082
no binding: all assays above

B2: α8#139 mAb (antibody, IgG1, V domains shown)
VH: QVQLKQSGPGLVQPSQSLSITCTVSGFSLTSYGVHWIRQSPGKGLEWLGVIWSGGNTDYNAAFISRLSITKDNSKSQFFFKMNSLQAKDTAIYYCARGRGNYVPFTYWGQGTLVTVSA
VL: QIVLTQSPTIMSASLGERVTMTCTASSSVSSTYLHWYQQKPGSSPKLLIYSTSNLASGVPARFSGSGSGTSYSLTISNMEAEDAATYYCHQYHRSPPMTFGGGTKLEIK
notes: HRP-labelled where used as labelled antibody; also called FERM BP-11081
no binding: all assays above
